In article PMC3677378:

Assays:
[1] = biological target: E. coli ribosomal post-peptide-release complex (RC; 70S, tRNA^fMet and [Met, stop]-mRNA) (E. coli) (UniProt P0AG67); experiment: co-sedimentation; as a1 but with extra GDP titrated in, up to 200 μM extra GDP; ultracentrifugation on sucrose cushion, SDS-PAGE
[2] = biological target: E. coli ribosomal post-peptide-release complex (RC; 70S, tRNA^fMet and [Met, stop]-mRNA) (E. coli) (UniProt P0AG67); experiment: co-sedimentation; RC or naked 70S (ribosomes 0.5 µM) with RF1 (2 µM) and RF3 (6 µM), 1xHEPES-polymix buffer, 37°C 10 min, no extra added GDP; ultracentrifugation on 30% sucrose cushion, SDS-PAGE, band intensities compared with ribosomal protein S1

For “release factor 1 (RF1), wild type (from UniProt P0A7I0 1-360) (natural protein)”, the stoichiometry N (RF1 per S1 (band intensity)) [1] was 1 and the stoichiometry N (RF1 per S1 (band intensity)) [2] was 1.
